In article PMC7076459, “Biochemical and Molecular Characterization of PvNTD2, a Nucleotidase Highly Expressed in Nodules from Phaseolus vulgaris” (Plants, 2020):

Assays:
[1] = target: T1, PvNTD2 (Phaseolus vulgaris, UniProt V7AIP8); test: phosphate release, inhibition of phosphatase activity; format: biochemical; details: 2 mM UMP substrate (other nucleotides also tested), pH 7, 1 mM MgCl2, 37 °C; reaction product
T1 construct: gene PHAVU_011G182400g; ORF without predicted signal peptide (cleavage predicted between 24 and 25)
T1 sequence (V7AIP8 25-269): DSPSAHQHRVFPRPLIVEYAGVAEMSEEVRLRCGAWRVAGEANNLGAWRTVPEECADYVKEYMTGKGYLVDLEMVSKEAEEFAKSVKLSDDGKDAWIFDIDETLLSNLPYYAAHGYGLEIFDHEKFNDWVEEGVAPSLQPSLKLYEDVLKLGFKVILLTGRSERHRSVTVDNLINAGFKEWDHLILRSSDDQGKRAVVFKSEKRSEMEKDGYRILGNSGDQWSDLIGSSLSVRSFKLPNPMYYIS

[2] = substrate: Cc1cn([C@H]2C[C@H](O)[C@@H](COP(=O)(O)O)O2)c(=O)[nH]c1=O; test: phosphate release, Hanes-Woolf plot; format: biochemical, Phaseolus vulgaris; details: 50 mM TES-NaOH pH 7, 1 mM MgCl2, 37 °C
From the text: (§1) phosphate release, Hanes-Woolf plot on PvNTD2

[3] = substrate: Nc1ncnc2c1ncn2[C@@H]1O[C@H](COP(=O)(O)O)[C@@H](O)[C@H]1O; test: phosphate release, Hanes-Woolf plot; format: biochemical, Phaseolus vulgaris; details: 50 mM TES-NaOH pH 7, 1 mM MgCl2, 37 °C
From the text: as §1

[4] = substrate: O=c1[nH]c(=O)c2ncn([C@@H]3O[C@H](COP(=O)(O)O)[C@@H](O)[C@H]3O)c2[nH]1; test: phosphate release, Hanes-Woolf plot; format: biochemical, Phaseolus vulgaris; details: 50 mM TES-NaOH pH 7, 1 mM MgCl2, 37 °C
From the text: as §1

[5] = substrate: O=c1ccn([C@@H]2O[C@H](COP(=O)(O)O)[C@@H](O)[C@H]2O)c(=O)[nH]1; test: phosphate release, Hanes-Woolf plot; format: biochemical, Phaseolus vulgaris; details: 50 mM TES-NaOH pH 7, 1 mM MgCl2, 37 °C
From the text: as §1

| Molecule | % activity at 0.2 mM [1] | Km [2] [µM] | Vmax [2] [µmol/min/mg] | Km [3] [µM] | Vmax [3] [µmol/min/mg] | Km [4] [µM] | Vmax [4] [µmol/min/mg] | Km [5] [µM] | Vmax [5] [µmol/min/mg] |
| --- | --- | --- | --- | --- | --- | --- | --- | --- | --- |
| Nc1ncnc2c1ncn2[C@@H]1O[C@H](CO)[C@@H](O)[C@H]1O [adenosine] | The activity of the recombinant protein was strongly inhibited in the presence of adenosine | – | – | – | – | – | – | – | – |
| PvNTD2 (Phaseolus vulgaris) (protein, ORF without predicted signal peptide (cleavage predicted between 24 and 25)) DSPSAHQHRVFPRPLIVEYAGVAEMSEEVRLRCGAWRVAGEANNLGAWRTVPEECADYVKEYMTGKGYLVDLEMVSKEAEEFAKSVKLSDDGKDAWIFDIDETLLSNLPYYAAHGYGLEIFDHEKFNDWVEEGVAPSLQPSLKLYEDVLKLGFKVILLTGRSERHRSVTVDNLINAGFKEWDHLILRSSDDQGKRAVVFKSEKRSEMEKDGYRILGNSGDQWSDLIGSSLSVRSFKLPNPMYYIS | – | 63 | 4.08 | 11 | 1.46 | 95 | 4.22 | 39 | 4 |
